Changes are numbered by the printed parent chain.
B1: humanized antibody 2C6.9-hz21 (antibody, human IgG1, kappa, V domains shown)
VH: QVQLQESGPGLVKPSETLSLTCTVSGFSLTRYGVSWIRQPPGKGLEWIGVIWGEGNTNYNPSLKSRVTISKDSSKSQVSLKLSSVTAADTAVYYCARVNFGNALDYWGQGTLVTVSS
VL: DIVMTQSPDSLAVSLGERATINCKSSQSLLNSGNQKNYLTWYQQKPGQPPKLLIYWASTRDSGVPDRFSGSGSGTDFTLTISSLQAEDVAVYYCQNDFIFPLTFGGGTKVEIKR
notes: Humanized from murine 2C6.9M; Expressed in Expi293F cells and purified on protein A; also called 2C6.9 mAb; humanized monoclonal antibody 2C6.9
B2: humanized antibody 2C6.9-hz11 (antibody, human IgG1, kappa, V domains shown)
VH: B1 VH with E54D
VL: B1 VL
notes: Human IgG1 / kappa
B3: IMAB362 (antibody, V domains shown)
VH: QVQLQQPGAELVRPGASVKLSCKASGYTFTSYWINWVKQRPGQGLEWIGNIYPSDSYTNYNQKFKDKATLTVDKSSSTAYMQLSSPTSEDSAVYYCTRSWRGNSFDYWGQGTTLTVSS
VL: DIVMTQSPSSLTVTAGEKVTMSCKSSQSLLNSGNQKNYLTWYQQKPGQPPKLLIYWASTRESGVPDRFTGSGSGTDFTLTISSVQAEDLAVYYCQNDYSYPFTFGSGTKLEIKR

Tests used:
[1] = target: T1, human Claudin 18.2 on cell membrane (Homo sapiens, UniProt P56856); assay: Affinity to HEK293T-Claudin 18.2 by flow cytometry; details: binding to HEK293T-Claudin 18.2 cells
T1 construct: expressed in transfected cells
Method: (§1) The affinity of 2C6.9-hz21 to human Claudin 18.2 on cell membrane was detected using HEK293T-Claudin 18.2 cells. The specific procedures were as follows: HEK293T-Claudin 18.2 cells were detached and centrifuged, followed by being washed twice with PBS. And then the cells were resuspended in PBS containing 1% BSA and were plated into a 96-well tip bottom plate at 300000 cells per well in a volume of 50 μl for 20 wells in total. […] of 2C6.9-hz21 and IMAB362 antibody were separately then added with 11 concentrations starting from 1000 nM with three-fold dilution to each well. Human IgG was served as negative control. The reactions were mixed well and incubated for 1 h at 4° C. in the dark, followed by three times of washing with PBS, the FITC-labelled anti-human Fc secondary antibody (Biolegend, 409322) was added and incubated for 0.5 h at 4° C. in the dark. Detection was performed by flow cytometry (Beckman, Cytoflex) after being washed for three times with PBS.

human Claudin 18.2 = target: T2, human Claudin 18.2 (Homo sapiens, UniProt P56856); assay: Cell ELISA on L929-Claudin 18.2 cells; details: binding to L929-Claudin 18.2 cells, Cellular ELISA
T2 construct: expressed in transfected cells; cells formaldehyde-fixed for the cell ELISA
Method: Human Claudin18.2 belongs to the tetraspanin family and has a complex structure. Cell ELISA was thus carried out to maintain the structure of Claudin18.2. The stable cell lines L929-Claudin 18.2 constructed in 6.1 were used for detection. Specifically, L929-Claudin 18.2 adherent cells were detached by 2 mM EDTA treatment. The cells were resuspended and adjusted to 2×10^5/mL and 100 μL of the resuspension was plated into a 96-well plate and incubated overnight at 37° C. The next day, the media was removed, and the plate was washed with PBS once. 100 μL/well 4% formaldehyde was added to the plate. After 30 min of incubation at room temperature, formaldehyde was removed, followed by being washed twice with PBS. Blocking buffer (PBS containing 2% BSA) was then added to the plate at 100 μL/well, and incubated at 37° C. for 2 h. After removal of blocking buffer, 100 μL/well of serially diluted antibodies (starting from 1 μM, with 4-fold dilution, for a total of 11 concentrations) were added to the corresponding wells, which were incubated at 37° C. for 2 h afterwards. The plate was washed with 250 μL PBST for 5 times, and was allowed to stand for 2 min each time. […] The OD450 nm absorbance values were obtained on a plate reader (MD, SpectraMax M2) and the results were subjected to curve fitting by Graphpad Prism. […]

[2] = tested on: HEK293T-Claudin 18.2 cells; assay: ADCC, NK cell mediated killing assay; assay type: cell-based, human; details: NK92MI-CD16a effector cells, LDH detection
Method: 2C6.9 belongs to IgG1 subtype and has relative strong antibody-dependent cell-mediated cytotoxicity (ADCC). NK cell mediated killing assay was used to determine the ADCC activity of 2C6.9. The specific procedures were as follows: HEK293T-Claudin 18.2 cells were harvested and centrifuged, followed by adjustment of cell density. 1×10^4/well of cells were plated on a plate and incubated overnight. The medium was removed on the next day. NK92MI-CD16a cells (Huabo Biopharm) were centrifuged, resuspended in MEMA medium and adjusted to 1×10^6/mL, then 50 μL/well cells were added to the corresponding wells. 2C6.9-hz21 and IMAB362 antibodies were diluted with MEMA medium. For HEK293T-Claudin18.2 cells, 10 antibody concentrations were tested, starting from 40 μg/mL with 5-fold dilution. For NUGC-4 cells, 11 antibody concentrations were tested, starting from 2 mg/mL with 5-fold dilution. 50 μL/well of the diluted antibodies were added to the corresponding wells and the reactions were left to stand in incubator at 37° C., 5% CO2 and incubated for 5.5 h. Lysis buffer was then added to the positive control well and incubated for another 0.5 h. 50 μL/well of Lactate Dehydrogenase (LDH) detection agent (DOJINDO LABORATORISE, CK12) were added to the wells and the absorbance at 490 nm were taken every 10 min on a microplate reader (MD, SpectraMax M2). […]

human Claudin18.2 [3] = target: T3, human Claudin18.2 (human, UniProt P56856-2 1-261); assay: cell-based or functional assay
human Claudin18.2 [4] = target: T3, human Claudin18.2; assay: cell-based or functional assay; remark: listed apart in the source
human Claudin18.2 [5] = target: T3, human Claudin18.2; assay: cell-based or functional assay; remark: listed apart in the source
human Claudin18.2 [6] = target: T3, human Claudin18.2; assay: cell ELISA on formaldehyde-fixed L929-Claudin 18.2 cells, HRP anti-human IgG
Method: (§2) Human Claudin18.2 belongs to the tetraspanin family and has a complex structure. Cell ELISA was thus carried out to maintain the structure of Claudin18.2. […] The cells were resuspended and adjusted to 2×10⁵/mL and 100 μL of the resuspension was plated into a 96-well plate and incubated overnight at 37° C. The next day, the media was removed, and the plate was washed with PBS once. 100 μL/well 4% formaldehyde was added to the plate. After 30 min of incubation at room temperature, formaldehyde was removed, followed by being washed twice with PBS. Blocking buffer (PBS containing 2% BSA) was then added to the plate at 100 μL/well, and incubated at 37° C. for 2 h. After removal of blocking buffer, 100 μL/well of serially diluted antibodies (starting from 1 μM, with 4-fold dilution, for a total of 11 concentrations) were added to the corresponding wells, which were incubated at 37° C. for 2 h afterwards. The plate was washed with 250 μL PBST for 5 times, and was allowed to stand for 2 min each time. 100 μL/well of horseradish peroxidase labeled anti-Human IgG secondary antibody (HRP-anti-Human IgG, Jackson ImmunoResearch, 109-035-003) diluted 1:10000 in PBS (containing 2% BSA) was added to the plate. […] The OD450 nm absorbance values were obtained on a plate reader (MD, SpectraMax M2) and the results were subjected to curve fitting by Graphpad Prism.

human Claudin18.2 [7] = target: T3, human Claudin18.2; assay: flow cytometry on HEK293T-Claudin 18.2 cells, FITC anti-human Fc secondary antibody
Method: as §1, with “The” for “The affinity of 2C6.9-hz21 to human Claudin 18.2 on cell membrane was detected using HEK293T-Claudin 18.2 cells. The”

human Claudin18.1 = target: T4, human Claudin18.1 (human, UniProt P56856 1-261); assay: flow cytometry on HEK293T-human Claudin 18.1 cells, FITC anti-human Fc secondary antibody
T4 construct: whole, on cells
Method: The specificity of candidate antibodies was detected by FACS. […] After being washed twice with PBS, the cells were resuspended with PBS containing 1% BSA. 300000 cells for each cell line were added with the candidate antibodies at a final concentration of 1000 nM, mixed well, and incubated for 1 h at 4° C., protected from light. Then the cells were washed for three times with PBS and FITC-labeled anti-human Fc secondary antibody (BioLegend, 409322) was added, followed by 0.5 h of incubation at 4° C. in the dark. Detection was performed by flow cytometry (Beckman, Cytoflex) after being washed with PBS for three times.

human Claudin18.2 [8] = target: T3, human Claudin18.2; assay: cell ELISA on L929-Claudin 18.2 cells
Method: as §2

| Molecule | Max MFI [1] | Max signal value (OD450) (human Claudin 18.2) | Max. cytotoxicity (%) [2] | 4-hour internalization ratio on NUGC-4 cells (flow cytometry) (human Claudin18.2 [3]) | CDC activity, EC50 value (human Claudin18.2 [4]) | ADCC activity, EC50 value (human Claudin18.2 [5]) | EC50 (human Claudin18.2 [6]) | EC50 (human Claudin18.2 [7]) | binding result (human Claudin18.1) | binding result (human Claudin18.2 [8]) |
| --- | --- | --- | --- | --- | --- | --- | --- | --- | --- | --- |
| IMAB362: control anti-Claudin 18.2 antibody, sequences from patent CN 101312989 B [reference compound] | 156715.7 | 0.53 | 20% |  |  |  |  |  |  |  |
| B1 |  |  |  | 37.8% | 1.36 µg/mL | 0.0677 µg/mL | 0.12 nM | 5.77 nM | no binding (tested: 1000 nM) |  |
| B2 |  |  |  |  |  |  |  |  |  | binds |
| B3 |  |  |  |  | 3.32 µg/mL | 0.0577 µg/mL | 0.15 nM | 8.22 nM |  |  |
